The text below walks through data of article PMC3787073 (PLoS ONE, 2013).

In general, Ki refers to a measure of affinity in units of concentration, obtained from inhibition or displacement. The low end stands for a stronger hold on the target, the high end for a looser hold on the target.

Where two headings read alike, the source gives them in different places.

What all share (experiment): enzyme inhibition kinetics (Dixon plot)
In assay [1] the target is α-chymotrypsin from bovine pancreas (bovine).
For assay [2] the target is unchanged. The source holds these as a separate data set.
The target of assay [3] is elastase from bovine pancreas (bovine, UniProt Q28153 27-266). To be noted: both partners purified.
elastase from bovine pancreas, sequence (Q28153 27-266): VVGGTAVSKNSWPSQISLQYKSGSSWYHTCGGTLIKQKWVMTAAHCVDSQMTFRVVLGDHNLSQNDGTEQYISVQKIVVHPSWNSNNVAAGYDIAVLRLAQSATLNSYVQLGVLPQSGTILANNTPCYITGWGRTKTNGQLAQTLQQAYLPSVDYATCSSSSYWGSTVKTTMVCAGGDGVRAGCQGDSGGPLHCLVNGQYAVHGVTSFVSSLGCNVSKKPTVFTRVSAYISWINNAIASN

Consider “Recombinant Sc-KU-4 (BPTI-Kunitz family serine protease inhibitor of Steinernema carpocapsae) (from UniProt E2IPQ6) (natural protein)”, for which the inhibition constant (Ki) in assay [1] came to 1.8 nM; in assay [2] it was 2.6 nM.

B1: Recombinant Sc-KU-4 (BPTI-Kunitz family serine protease inhibitor of Steinernema carpocapsae) (natural protein)
chain: FPLFEFNCSALKDSGSGSNVTRQFYFDPDWNTCLAFNYNGTGGNTNRFETKEDCELLCVPAGSTCKGPSKTVVQPLKEAFRCDDSVCPSTHKCLMGMVPVCCDKENQEAFNQAVADTCPDGTKADGIFDLYFRAVYAHSCEDLICDENHKCVQVNKHFAKCCSKE
notes: not shown: His6, C-terminal, kept
B1 returned an inhibitory constant (Ki) in assay [3] of 2.6 nM.
